Reference: publication PMC10720262 (Cell Reports, 2023)

What was measured:
[1] = biological target: recombinant full-length PfCSP (Plasmodium falciparum circumsporozoite protein, strain NF54) (Plasmodium falciparum NF54, UniProt P19597)
NANP6 peptide = biological target: T1, NANP6 peptide (Plasmodium falciparum NF54); experiment: SPR; Carterra LSA; mAb amine-coupled to a CMD200M chip, peptide titrated in 2-fold steps up to 8 ug/mL without regeneration; 25 C; HBSTE (10 mM HEPES pH 7.4, 150 mM NaCl, 3 mM EDTA, 0.01% Tween 20); 1:1 Langmuir model; mean of triplicates; KD includes avidity for antigens with several repeats; conditions: both partners purified
T1 construct: source: synthetic peptide (CPC Scientific)

recombinant full-length PfCSP (Plasmodium falciparum circumsporozoite protein, strain NF54), sequence (P19597 20-375): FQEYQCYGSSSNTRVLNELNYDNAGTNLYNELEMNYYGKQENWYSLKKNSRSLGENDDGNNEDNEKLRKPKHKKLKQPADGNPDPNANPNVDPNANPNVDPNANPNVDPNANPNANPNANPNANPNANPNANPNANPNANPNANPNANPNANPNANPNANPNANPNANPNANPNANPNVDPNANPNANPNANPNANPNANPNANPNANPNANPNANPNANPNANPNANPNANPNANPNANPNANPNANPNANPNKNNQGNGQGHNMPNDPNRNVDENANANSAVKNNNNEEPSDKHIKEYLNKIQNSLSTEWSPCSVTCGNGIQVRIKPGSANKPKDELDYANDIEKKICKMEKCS

Binder	binding result [1]	Kd (NANP6 peptide) [nM]
CL-531237 (antibody, V domains shown) VH: QVQLVESGGGVVQPGTSLRLSCVASGFTFSNFGIHWFRQAPGKGLEWVSLIWYDGKNKFYAESVTGRFTISRDNSKNTVYLQMSSLRAEDTAVYYCARSYYYDSGNYFDYWGQGTLVTVSS VL: DIQMTQSPSSVSASVGDRITITCRASQGISSRLAWFQQKPGKAPNFLIYGTSSLQSGVPSRFSGSGSGTDFTLTISSLQPEDSATYYCQQANSYPWTFGQGTKVEIK	binds	–
CL-531286 (antibody, V domains shown) VH: QVQLVESGGGLVQPGRSLRLSCAASGFTFSSSGMHWVRQAPGKGLEWVAVIWYDGSNKFYADSVKGRFTISRDNSKNTLYLQMNSLRAEDTAVYYCARSGYDILTGYFNFFDPWGQGTLVTVSS VL: EIVLTQSPGTLSLSPGERATLSCRASQSVSSSHLAWYQQKPGQAPRLLIYGASSRATGIPDRFSGSGSGTDFTLTISRLEPEDFAVYYCHQYVSSFTFGPGTKVDFK	binds	–
Ky15.1 (antibody, V domains shown, source: CHO-3E7, purified (MabSelect SuRe LX)) VH: QVQLVESGGGVVQPGRSLRLSCAASGFTFSNFGMHWVRQTPDRGLEWVAIIWFDGSNTFYADSVKGRFTISRDNYKNTLYLQMNSLRAEDTAVYFCARSFYSDSAGSLFDYWGQGTLVTVSS VL: DIQMTQSPSTLSASVGDRVTITCRASQSISSWVAWYQQKPGKAPKLLIYKASDLETGVPSRFSGSGSGTEFTLTISGLQPDDFVTYYCLQNMRYWTFGQGTKVEIK	–	0.0384
CL-515341 (antibody, V domains shown) VH: QVYLVESGGGVVQPGKSLRLSCAASGFTFSNYGMHWVRQAPGKGLEWVAIIWHDGSNKFYSDSVRGRFTISRDNSQNTLYLQMNSLSAEDTALYFCAKDIGYSNTWDYFDYWGQGTLVTVSS VL: EIVLTQSPATLSLSPGERATLSCRASQSVNSFLAWYQQKPGQAPRLLIYDASNRATDIPDRFSGSGSGTDFTLTIRSLEPEDFAVYFCQQRSKWFTFGGGTTVEMK	binds	–
Ky230 (antibody, V domains shown, source: CHO-3E7, purified (MabSelect SuRe LX)) VH: QVQLVESGGGVVQPGRSLRLSCAASGFTFSDYGMHWVRQAPGKGLEWVAIIWHDGSNKYYVDSVKGRFTISRDNSKNTLYLQMNSLRAEDTAVYYCARAASSFGSGFDYWGQGTLVTVSS VL: DVVMTQSPLSLPVTLGQPASIFCRSSQSLVYSDGNTYLNWFQRRPGQSPRRLIYKVSDRDSGVPDRFSGSGSGTDFTLQISRVEAEDVGVYYCMQGTHWPPTFGQGTKVEIK	–	0.257
Ky315 (antibody, V domains shown, source: CHO-3E7, purified (MabSelect SuRe LX)) VH: QVQLVESGGGVVQPGRSLRLSCAASGFTLSNYGVHWVRQAPGTGLEWVALIWYDGSNKFYADSVKGRFTISRDNSMDIVYLQMNNLRAEDTALYYCVRPGIAAAGSNYYAMDVWGQGTAVTVSS VL: EIVMTQSPATLSMSPGERATLSCRASQSVGSDLAWFQQKPGQAPRLLIYGAFTRATGIPARFSGSGSGSEFTLTISSLQSEDFAVYYCQQYNRWWTFGQGTKVEMK	–	0.0723
CL-531325 (antibody, V domains shown) VH: QVHLVESGGGVVQPGKSLRLSCAASGFTFSNFGMHWVRQAPGKGLEWVALIWYDGSHKFYADSVQGRFTISRDNSKNTLFLQMNSLRAEDTAIYYCAKVISYGSVNYYNNYKYTMDVWGQGTTVTVSS VL: not shown	binds	–
Ky311 (antibody, V domains shown, source: CHO-3E7, purified (MabSelect SuRe LX)) VH: QMHLVESGGGVVQPGRSLRLSCVASGFTFNNHGMHWVRQAPGKGLEWVAVIWHDGSNKFYADSVNGRFIVSRDNSKNTLYLHMNSLRAEDTAVYYCARDFFVSGSYNYFDPWGQGTLVTVSS VL: EIVLTQSPVTLSLSPGERATLSCRASQSVSNYLAWYQQKPGQAPRLLIYDAANRATGTPARFSGSGSGTDFTLTISSLEPEDFAVYFCQQRSKWFTFGPGTKLDIK	–	≤ 0.0233
Ky224 (antibody, V domains shown, source: CHO-3E7, purified (MabSelect SuRe LX)) VH: QVQLVESGGGVVQPGRSLRLSCAASGFTFSVYGMHWVRQAPGKGLEWVAVIWYDGSNKIYADSVKGRFTISRDNSKNTLYLQMDSLSAADTAVYYCAKIGSSSFDYWGQGTLVIVSS VL: DIVMTQTPLSSPVTLGQPASISCRSSQSLVHSNGITYLSWLQQRPGQPPRLLLYEISNRFSGVPDRFSGSGTGTDFTLKISRVEAEDVGVYYCMQTTQFPITFGQGTRLEIK	–	1.34
Ky15.8 (antibody, V domains shown, source: CHO-3E7, purified (MabSelect SuRe LX)) VH: QVQLVESGGNVVQPGRSLRLSCTASGFTFSSYGMHWVRQAPDKGLEWVAIIWYDGGNKFYADSVKGRFTISRDNSKDTLYLQMNSLRAEDTAVYYCAKAWYKIDDKYSMDVWGQGTTVTVSS VL: not shown	–	≤ 0.0312
CL-514716 (antibody, V domains shown) VH: QIQLVESGGGVVQPGRSLRLSCAASGFTFSTYGMHWVRQAPGKGLEWVAVIWYDGSNKYYADSVQGRFTISRDNSKNTLYLQMNSLRAEDTAIYYCTTVGPIPFDYWGQGTLVTVSS VL: DIVMTQTPLSSPVILGQPASISCRSSQSLVHSSGNTYLSWLQQRPGQPPRLLIYKTFKRLSGVPDRFSGSGAGTDFTLKISRVEAEDVGVYYCLQSTQFPLTFGGGTKVEIK	binds	–
CL-531271 (antibody, V domains shown) VH: QVQLVESGGGEVQPGRSLRLSCAASGFTFSNYGMHWVRQAPGKGLEWVALIWYDGNNKFYADSVNGRFTISRDNSNNTLYLQMNSLRAEDTGVYYCARSFYYVSGNFFDYWGQGTLVTVSS VL: DIPMTQSPSSVSASVGDRVTITCRASQGISTWLAWYQQKPGKAPKFLIYAASSLQSGVPSRFSGSGSGTDFTLTIYSLQPEDFATYYCQQGNSFPWTFGQGTKVEIK	binds	–
CL-514174 (antibody, V domains shown) VH: QVQLVESGGGVVQPGRSLRLSCVASGFTFSGSGMHWVRQSPGKGLEWVAIIWYDGSNKFYADSVQGRFTISRDNSKNTLYLQMNSLRVEDTGVYYCARAYLSGNYGDKYGMDVWGQGTTVTVSS VL: DIQMTQSPSTLSASVGDRVTITCRASQSISSWLAWFQQKPGKAPKLLIYKASSLESGVPSRFSGSGSGTEFTLTINSLQPDDFATYFCQQYNYYWTFGQGTKVEIK	binds	–
Ky15.7 (antibody, V domains shown, source: CHO-3E7, purified (MabSelect SuRe LX)) VH: QVQVVESGGGAVQPGRSLRLSCAASGFTFSNRGMHWVRQTPGKGLEWVAIIWYDGGNKFYADSVKGRFTISRDNSKNTLYLQMNSLRDEDTAVYYCVRAGDWKADKYTMDVWGQGTTVTVSS VL: DIQMTQSPSTLSASVGDRVTITCRASQSISSWLAWYQQKPGKAPKVLIYQASSLESGVPSRFSGSGSGTEFTLTISSLQPDDFATYYCQQYNSYWTFGQGTKVEIK	–	0.113
CL-515284 (antibody, V domains shown) VH: QVQLVGSGGGVVQSGRSLRLSCAASGFTFSNFGMHWVRQTPDKGLEWLAIIWYDGSHKFYVDSVKGRFTISRDNSMNTLFLQMNSLRAEDTGVYYCVRSWNYADSKYGMDVWGQGTTVTVSS VL: DIQMTQSPSTLSASVGDRVTITCRASQSISSWLAWYQQKPGKAPNLLIYKASSLESGVPSRFSGSGSGTEFTLTISSLQPDDFATYYCQQYYNYWTFGQGTKVEIK	binds	–
CL-531912 (antibody, V domains shown) VH: LVQLVESGGGVVQPGRSLRLSCAASGFTFSSSGMHWVRQAPGKGLEWVAIIWYDGSNKFYADSVKGRFTISRDNSKNTLYLQMNSLRAEDTAVYYCARAYVSGSHGDKYGMDVWGQGTTVTVSS VL: DIQMTQSPSTLSASVGDRVTITCRASQSISSWLAWFQQKPGKAPKLLIYKASSLESGVPSRFSGSGSGTEFTLTINSLQPDDFATYFCQQYNNYWTFGQGTKVEIK	binds	–
CL-532061 (antibody, V domains shown) VH: QVQLVESGGGVVQPGRSLRLSCVASRFTFSNYGMHWVRQTPGKGLEWVAIIWYDGSNKFYGDSVKGRFTISRDNSRNTLYLQMNNLRAEDTAVYYCARAYDDFVDHDKYGMDVWGQGTTVTVSS VL: DIQMTQSPSTLSASVGDRVTISCRASQSISIWLAWYQQKSGKAPKLLIYKASRLESGVPSRFSGSGSGTEFTLTISSLQPDDFATYYCQQYNSYWTFGQGTKVEIK	binds	–
Ky15.10 (antibody, V domains shown, source: CHO-3E7, purified (MabSelect SuRe LX)) VH: QVQLVESGGGVVQPGRSLRLSCAASGFTFSNSGMHWVRQVPGKGLEWVAIIWYDGSNKYYADSVKGRFSVSRDNSENTLYLQMSNLRAEDTAVYYCVRAYFDSENLYDYYGMDVWGQGTTVTVSS VL: DIQMTQSPSTLSASVGDRVTITCRASQSISRWLAWFQKKPGKAPKLLIYTASNLESGVPSRFSGSGSGTEFTLTISSLQPDDFATYYCQQYYNYWTFGQGTKVEVK	–	0.0153
CL-531969 (antibody, V domains shown) VH: QVQLVESGGGVVQPGRSLRLSCAASGFTFSSSGMHWVRQAPGMGLEWVAIIWYDGSNKFYADSVKGRFTISRDNSKNTLYLQMNSLRAEDTAVYYCARAYVSGNYGDNYGMDVWGQGTTVTVSS VL: DIQMTQSPSTLSASVGDRVTITCRASQSISSWLAWFQQKPGKAPKLLIYKASSLESGVPSRFSGSGSGTEFTLTINSLQPDDFATYFCQQYNYYWTFGQGTKVEIK	binds	–
Ky15.11 (antibody, V domains shown, source: CHO-3E7, purified (MabSelect SuRe LX)) VH: QVQLVESGGGVVQPGRSLRLSCEASGFTFSNFGMHWVRQTPVKGLEWVAIIWFDGSYKYYTDSVKGRFTISRDNSKNTLYLQMNSLRAEDTAVYYCARARKGQRSDYYGSETSYTFDNWGQGTLVTVSS VL: DIQMTQSPSTLSASVGDRVTITCRASQSINGWLAWYQQKPGKAPKFLIYKASILESGIPSRFSGSGSGTEFTLTISSLQPDDFATYYCQQYSSYWTFGQGTKVEIK	–	≤ 0.0357
CL-531383 (antibody, V domains shown) VH: QVQLVESGGGVVQPGRSLRLSCAASGFTFSSFGMHWVRQTPVKGLEWVALIWYDGSHKFYADSVRGRFIISRDNSKNTLFLQMNSLRAEDTAIYYCAKVINYGSGNYYNNYKYTMDVWGQGTTVTVSS VL: DIQMTQSPSTLSASVGDRVTITCRASQSISSWLAWYQQKPGKAPKVLIYKASSLESGVPSRFSGSGSGTEFTLTISSLQPDDFATYYCQQYNTYWTFGQGTKVEIK	binds	–
CL-532151 (antibody, V domains shown) VH: QVQLVESGGGVVQPGGSLRLSCAASGFTFSGSGMHWVRHAPGKGLEWVAIIWYDGSNKFYADSVKGRFTISRDNSRNTLYLQMNSLRAEDTAVYYCARAYVSGNYGDKYGMDVWGQGTTVTVSS VL: DIQMTQSPSTLSASVGDRVTITCRASQSISNWLAWFQQKPGKAPKLLIYKASSLESGVPSRFSGSGSGTEFTLTINSLQPDDFATYFCQQYNYYWTFGQGTKVEIK	binds	–
